Test results taken from patent US20060235215A1 (published 2006).

T1: O. sativa 14-3-3 Protein Homolog GF14-c, bait fragment aa 1-150 (Oryza sativa, UniProt Q6ZKC0 1-150)
T1 construct: bait; also called OsGF14-c; PN12464
T1 sequence: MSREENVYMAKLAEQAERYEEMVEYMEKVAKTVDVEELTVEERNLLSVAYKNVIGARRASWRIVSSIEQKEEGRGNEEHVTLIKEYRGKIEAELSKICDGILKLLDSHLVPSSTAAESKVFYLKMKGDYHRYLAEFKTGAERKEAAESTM

T2: O. sativa Cellulose Synthase Catalytic Subunit, RSW1-Like, bait fragment aa 316-583 (Oryza sativa, UniProt A2Y0X2 316-583)
T2 construct: bait; also called OsCS; PN19707
T2 sequence: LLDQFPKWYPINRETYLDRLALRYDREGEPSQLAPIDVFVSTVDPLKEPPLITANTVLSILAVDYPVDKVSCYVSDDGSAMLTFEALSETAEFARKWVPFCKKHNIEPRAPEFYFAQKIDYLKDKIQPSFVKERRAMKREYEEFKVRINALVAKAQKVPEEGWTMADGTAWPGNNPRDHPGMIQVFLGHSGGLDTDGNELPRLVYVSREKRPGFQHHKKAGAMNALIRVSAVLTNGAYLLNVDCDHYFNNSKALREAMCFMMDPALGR

B1: Novel Protein 22858, Fragment, similar to Arabidopsis GTP Cyclohydrolase II, prey clone aa 27-154 (other)
chain: DKPTDGFSSIDEAIGALHEGKFVIAVDDESGDNEGDLVMAATLADPESIAFMIRNGSGIISVGMKEEDLTRLMIPMMSPIAEIEDISAAASTVTVDARVGISTGVSAADRAKTIFTLASPDSKPTDLR
notes: prey; AD fusion; input trait library; also called OsPN22858
B2: Novel Protein PN30846 (putative dynamin homolog), prey clone aa 1-266 (other)
chain: APRRPSTFLNAVALGNVGAGKSAVLNSLIGHPVLPTGENGATRAPIVVDLQRDPGLSSKSIVLQIDSKSQRVSASSLRHSLQDRLSKGASSGSSRGRVEGINLKLRTSTAPPLKLVDLPGIDQRAVDDPMINEYAGHNDAILLVVIPAMQAADVASSRALRLAKDIDADGTRTVGVISKVDQAEGDAKTIACVQALLLNKGPKNLPDIEWVALIGQSVAIASAQAAGSENSLETAWNAEAETLRSILTGAPKSKLGRIALVDTIAK
notes: prey; AD fusion; input trait library; also called OsPN30846
B3: O. sativa Fructose-Bisphosphate Aldolase, Chloroplast Precursor, prey clone aa 206-269 (enzyme)
chain: QDNGLVPIVEPEILLDGEHGIDRTFEVAQKVWAETFFYMAENNVMFEGILLKPSMVTPGAECKD
notes: prey; AD fusion; input trait library; also called OsBAA02730; PN22832
B4: O. sativa Photosystem II 10 kDa Polypeptide, prey clone aa 82-126 (other)
chain: SPEEWSPTGDTYVGGTTGLLIWAVTLAGLLGGGALLVYNTSALAG
notes: prey; AD fusion; input trait library; also called OsAAB46718; PN22840
B5: Novel Protein PN29982, prey clone aa 201-300 (other)
chain: SPVVDNADVTETKPQTELPVHVMCAEWSSQKRLKKVQLETLERVYSRTKRPTNTMISSIVQVTSLPRKTIVKWFEDRREQDGVPDHRVAFKRSLSETIAS
notes: prey; AD fusion; input trait library; also called OsPN29982
B6: O. sativa 3-Phosphoshikimate 1-carboxyvinyltransferase (a.k.a. EPSP Synthase), prey clone aa 463-511 (enzyme)
chain: AIDTYDDHRMAMAFSLAACADVPVTIRDPGCTRKTFPNYFDVLSTFVRN
notes: prey; AD fusion; input trait library; also called OsBAB61062; PN22844
B7: OsContig4331, O. sativa Putative 33 kDa Oxygen-Evolving Protein of Photosystem II, prey clone aa 193-333 (other)
chain: DGIDYAAVTVQLPGGERVPFLFTIKNLVATGKPESFGGPFLVPSYRGSSFLDPKGRGGSTGYDNAVALPAGGRGDEEELAKENVKNASSSTGNITLSVTKSKPETGEVIGVFESVQPSDTDLGAKVPKDVKIQGVWYAQLE
notes: prey; AD fusion; input trait library; also called OsPN23059
B8: Novel Protein PN30974, prey clone aa 38-178 (other)
chain: GGYDHPGLIPGLPDEISLQILARMPRMGYLNAKMVSRSWKAAITGVELYRVRKELGVSEEWLYMLTKSDDGKLVWNAFDPVCGQWQRLPLMPGISHGGECKRGIPGLWLGDLLSAGIRVSDVIRGWLGQRDSLDRLPFCGC
notes: prey; AD fusion; input trait library; also called OsPN30974
B9: Hypothetical Protein OsContig3864, Similar to H. vulgare Photosystem I Reaction Center Subunit II, Chloroplast Precursor, prey clone aa 94-203 (other)
chain: VITWTSPKEQVFEMPTGGAAIMREGPNLLKLARKEQCLALGTRLRSKYKINYQFYRVFPNGEVQYLHPKDGVYPEKVNAGRQGVGQNFRSIGKNVSPIEVKFTGKNVFDI
notes: prey; AD fusion; input trait library; also called OsPN23061
B10: OsContig4331, O. sativa Putative 33 kDa Oxygen-Evolving Protein of Photosystem II, prey clone aa 90-169 (other)
chain: PRRLTFDEIQSKTYMEVKGTGTANQCPTVEGGVDSFAFKAGKYNMKKFCLEPTSFTVKAEGVAKNAPPEFQKTKLMTRLT
notes: as for B7
B11: O. sativa Ribulose Bisphosphate Carboxylase/Oxygenase Activase, Large Isoform A1, prey clone aa 68-210 (enzyme)
chain: DISDDQQDITRGKGFVDSLFQAPTGDGTHEAVLSSYEYLSQGLRTYDFDNTMGGFYIAPAFMDKLVVHISKNFMTLPNIKVPLILGIWGGKGQGKSFQCELVFAKMGINPIMMSAGELESGNAGEPAKLIRQRYREAADIIKK
notes: prey; AD fusion; input trait library; also called OsRCAA1; PN19842
B12: Novel Protein PN22866, Fragment, Similar to A. thaliana Vacuolar ATP Synthase Subunit C, prey clone aa 95-305 (other)
chain: LLALSDDLVKSNVFIEGVSHKIRRQIEELERAGGVESGALTVDGVPVDTYLTRFVWDEGKYPTMSPLKEIAGSIQSQVSKIEDDMKVRGAEYNNVRSQLNAINRKQTGSLAVRDLSNLVKPEDMVTSEHLVTLLAVVPQYSQKDWLSSYESLDTFVVPRSSKKLYEDNEYALYTVTLFAKVVDNFKVRAREKGFQVRDFEYSSEAQESRKE
notes: prey; AD fusion; input trait library; also called OsPN22866
B13: Novel Protein 22874, Fragment, similar to Arabidopsis Putative Phosphatidylinositol-4-phosphate 5-kinase, prey clone aa 1-88 (other)
chain: GTNPGFRVGEIRLSNRDIYFGTLLGNTPEGSGRYVWSDGCTYDGEWRRGMRHGQGKTMWPSGATYEGEYSGGYIYGEGTYTGSDNIVY
notes: prey; AD fusion; input trait library; also called OsPN22874; rice PI4P5K
B14: Novel Protein PN29117, prey clone aa 1-151 (printed -7-151) (other)
chain: MLVQRRDGDTGPAVRLRVSHGASFRDVAVPAHSTFGELKGVLTQATGVEPERQRLFFRGKEKSDNEFLHTAGVKDGAKLLLLEKPAPANVEQRAEPVIMDESMMKACEAVGRVRAEVDRLSAKVCDLEKSVFAGRKIEDKDFVVLTELLMM
notes: prey; AD fusion; output trait library; clone also holds a small portion (-7 to 0) of the 5' untranslated region; also called OsPN29117; BAG-like protein
B15: Novel Protein PN29084, Fragment, Similar to Soybean (Glycine max) Calcium-Dependent Protein Kinase, prey clone aa 1-253 (other)
chain: ESGIFRQILRGKLDLESDPWPSISDSAKDLVRNMLIRDPTKRFTAHEVLCHPWIVDDAVAPDKPIDSAVLSRLKHFSAMNKLKKMALRVIAESLSEEEIGGLKELFKMIDTDNSGTITYDELKNGLKRVGSDLMEPEIQALMDAADIDNSGTIDYGEFLAATLHMNKLEREENLVSAFTFFDKDGSGFITIDELSQACEQFGLSDVHLEDMIKDVDQNNDGQIDYSEFAAMMRKGNAGGANAGGVTSTGGTGR
notes: prey; AD fusion; output trait library; three clones; also called OsPN29084
B16: Novel Protein PN29076, Fragment, prey clone aa 1-187 (other)
chain: ERDISMVNSYPPSAFDCKGWNSASIFIYESDEEIQCLLDWLRDYDPREKELKDSILQWQRHFCHQSSSPLVDPPISGPKGEQLMELPNTKAAVILEQKYGLQLDQDTSDLPKKRGKKIKLSSEDRTYRCDCLEPVWPSRYHCLTCHETYLISTEFEGHNDGKCSKIHQSPDESRENDEPKVKVTKSD
notes: prey; AD fusion; output trait library; also called OsPN29076
B17: Novel Protein PN29077, Fragment, Similar to A. thaliana DNA-Damage Inducible Protein DDI1-Like, prey clone aa 1-242 (other)
chain: VEAQKKIEAAIRQKGIDENWEAALEHNPEAFARVVMLYVDMEVNGVPLKAFVDSGAQSTIISKSCAERCGLLRLLDQRYRGVAIGVGQSEILGRIHVAPIKIGHVFYPCSFTVLDAPNMEFLFGLDMLRKHQCIIDLKDNVLRVGGGEVSVPFLQEKDIPSHIRDEEKLSKLASLSQGAAGESSTAREKTPDAPPRAPTTGAPAVNPPQPQGGGDFEAKVTKLVELGFDRASVIQALKLFNG
notes: prey; AD fusion; output trait library; four clones; also called OsPN29077
B18: O. sativa DNAJ Homologue, prey clone aa 1-92 (other)
chain: CKVSYIDAILGTTVKVPTVDGMVDLKIPSGTQPGTTLVMSKKGVPLLGKSNARGDQLVRVQVEIPKRLSSDERKLIEELANLNKAQTANSRR
notes: prey; AD fusion; output trait library; also called OsPN29113
B19: O. sativa salT Gene Product, prey clone aa 6-145 (other)
chain: IGPWGGNGGSAQDISVPPKKLLGVTIYSSDAIRSIAFNYIGVDGQEYAIGPWGGGESTSTEIKLGSSEQIKEISGTHGPVYDLADIVTYLKIVTSANNTYEAGVPNGKEFSIPLQDSGHVVGFFGRSGTLIDAIGIYVHP
notes: prey; AD fusion; output trait library; also called OsAAB53810; PN29086
B20: O. sativa Cellulose Synthase Catalytic Subunit, RSW1-Like, prey clone aa 316-582 (enzyme)
chain: LLDQFPKWYPINRETYLDRLALRYDREGEPSQLAPIDVFVSTVDPLKEPPLITANTVLSILAVDYPVDKVSCYVSDDGSAMLTFEALSETAEFARKWVPFCKKHNIEPRAPEFYFAQKIDYLKDKIQPSFVKERRAMKREYEEFKVRINALVAKAQKVPEEGWTMADGTAWPGNNPRDHPGMIQVFLGHSGGLDTDGNELPRLVYVSREKRPGFQHHKKAGAMNALIRVSAVLTNGAYLLNVDCDHYFNNSKALREAMCFMMDPALG
notes: prey; AD fusion; input trait library; also called OsCS; PN19707
B21: Novel Protein PN29119, Fragment, prey clone aa 1-155 (printed -53 to 155) (other)
chain: MEFEADGARWPEPRGDAAGAPPLERGDAPSPRFDSSRALRLLRELGSNVTEDLVVLMPNLLSFLKHDDPVVVNQSIASGTNLFAAVLEEMTLQINKCGRVDAWLEEMWAWTKQFKDAVHNLIHESVPVATKLFAVKFIETWILCFAPQSKSDRMQ
notes: prey; AD fusion; output trait library; clone also holds a portion of the 5' untranslated region; also called OsPN29119
B22: O. sativa Aquaporin, prey clone aa 123-290 (other)
chain: RKVSLVRAILYIVAQCLGAICGVGLVNAFPNAYFNRYGGGANTLAAGYSKGTGLAAEIIGTFVLVYTVFSATDPKRNARDSHVPVLAPLPIGFAVFMVHLATIPITGTGINPARSIGAAVIFNNEKAWHNHWIFWVGPFVGAAIAAFYHQYILRAGAIKALGSFRSNA
notes: prey; AD fusion; output trait library; also called OsPIP2A; OsPIP2a
B23: Novel Protein PN29116, Fragment, prey clone aa 1-169 (other)
chain: GRKPVAAQHYNKGDKDGTSTGSRCTSVAWVPEREGIFVVSHSDGNLYVYDKCKDGNTECTFPAIKDPAQLMISHAKSSKSNPIARWHVCQGSINAISFSPDGAYLATVGRDGYLRVFDFSKEQLIFGGKSYYGALLCCTWSSDGKYLLTGGEDDLVQVWSMDDRKIVAW
notes: prey; AD fusion; output trait library; also called OsPN29116
B24: Novel Protein PN29115, Fragment, Similar to A. thaliana 6,7-Dimethyl-8-Ribityllumazine Synthase Precursor, prey clone aa 1-188 (other)
chain: VSFPYSPRPAALAAGARASRVSPVVVAAGGGHQRLMGSLTNTQGLRFGVVVARFNEIVTNLLLQGALETFERYSVKKENITVLSVPGSFEIPVAAQKLGKSGKFDANFVHWRCAFRGDTTHYGAVANSAASGVLSAGLSAEIPCIFGVLTCDDMDQALNRAGGKAGNKGAEAALTAIEMASLFQHHLA
notes: prey; AD fusion; output trait library; also called OsPN29115

What follows are binders tested against T1, O. sativa 14-3-3 Protein Homolog … (assay: yeast two-hybrid).

binding result	Binder
binds	B1
binds	B2
binds	B3
binds	B4
binds	B5
binds	B6
binds	B7
binds	B8
binds	B9
binds	B10
binds	B11
binds	B12
binds	B13

Each binder was assayed against T2, O. sativa Cellulose Synthase Catalytic … (assay: yeast two-hybrid).
Experimental: Yeast carrying the target gene construct was combined with yeast carrying the activation domain library. The two yeast strains mated to form diploid yeast and were plated on media that selected for expression of one or more Ga14p-responsive reporter genes. Thus, both hybrid proteins (i.e., the target “bait” protein and the activation domain “prey” protein) were expressed in a yeast reporter strain where an interaction between the test proteins results in transcription of the reporter genes […]. Colonies that arose after incubation were selected for further characterization. The activation domain plasmid was isolated from each colony obtained in the two-hybrid search. The sequence of the insert in this construct was obtained by sequence analysis (e.g., Sanger's dideoxy nucleotide chain termination method; see Ausubel et al., 1988, including updates up to 2002). Thus, the identity of positives obtained from these searches was determined by sequence analysis against proprietary and public (e.g., GENBANK®) nucleic acid and protein databases.
A second bait, namely O. sativa Cellulose Synthase Catalytic Subunit, RSW1-Like (OSCS; PN19707; GENBANK® Accession No. AF030052), was also used.

binding result	Binder
binds	B14
binds	B15
binds	B16
binds	B17
binds	B18
binds	B19
binds	B20
binds	B21
binds	B22
binds	B23
binds	B24
